Measured values: patent publication US20210340530A1 (INTELLIA THERAPEUTICS, published 2021)
Blank lines part the entries; values can stand above or below the binder they belong to.

How the values were obtained:
[1] = target: T1, WT1 (Wilms' tumor protein) peptide on HLA-A*02:01 (human); assay: killing
T1 peptide: RMFPNAPYL

[2] = target: T2, … (RMF) WT1 peptide pulsed on target cells (HLA-02.01 positive T2 cell line; OCI-AML3); assay: cell-based or functional assay
[3] = target: T3, … (VLD) WT1 peptide pulsed on target cells (HLA-02.01 positive T2 cell line; OCI-AML3); assay: cell-based or functional assay
[4] = target: T2, … (RMF) WT1 peptide pulsed on target …; assay: cell-based or functional assay; remark: listed apart in the source
[5] = target: T3, … (VLD) WT1 peptide pulsed on target …; assay: cell-based or functional assay; remark: listed apart in the source
[6] = target: T3, … (VLD) WT1 peptide pulsed on target …; assay: cell-based or functional assay; remark: listed apart in the source
[7] = target: T3, … (VLD) WT1 peptide pulsed on target …; assay: cell-based or functional assay; remark: listed apart in the source
[8] = target: T4, VLD-Tetramer (pMHC tetramer with WT1 peptide …); assay: flow cytometry, VLD-Tetramer staining of engineered T cells; TRAC + TRBC RNP
T4 construct: Staining reagent; also called VLD (Wilms' tumor antigen) tetramer; TCR specific pMHC tetramer
Procedure: (§1) Four to 12 days after RNP nucleofection, edited T cells (200 ul/200,000 cells) were collected in a 96 well round bottom plate and spun down at 500 g for 5 minutes. Cells were then resuspended in an antibody mixture containing a combination of antibodies targeting CD3, CD4, CD8, CD45RO, CD45RA, CD27, CCR7, CD62L, and/or the TCR specific pMHC tetramer or TCR specific Vbeta chain antibody. The mixture was incubated for 45 minutes at room temperature in the dark. Samples were spun down at 500 g for 5 minutes, cell pellets collected, and resuspended in 1:10,000 DAPI (Biolegend—#422801) in FACS buffer. Flow cytometry was then performed using the cytoflex according to the manufacturer's instructions.
(§2) T cells were evaluated with additional engineered TCRs for the impact of endogenous beta chains on pairing of both the inserted alpha chain and inserted beta chain. The experiment was performed as described herein except tetramer staining was used to measure MFI and the AAV inserts in Table 31 were used for transduction.

[9] = target: T4, VLD-Tetramer (pMHC tetramer with WT1 …); assay: flow cytometry, VLD-Tetramer staining of engineered T cells; TRAC RNP only
Procedure: as §1, §2

[10] = target: T2, … (RMF) WT1 peptide pulsed on target …; assay: cell-based or functional assay; remark: listed apart in the source
[11] = target: T3, … (VLD) WT1 peptide pulsed on target …; assay: cell-based or functional assay; remark: listed apart in the source

B1: TCR-H (TCR, V domains shown)
Valpha: RKEVEQDPGPFNVPEGATVAFNCTYSNSASQSFFWYRQDCRKEPKLLMSVYSSGNEDGRFTAQLNRASQYISLLIRDSKLSDSATYLCVVKPDPGAGSYQLTFGKGTKLSVIP
Vbeta: NAGVTQTPKFRVLKTGQSMTLLCAQDMNHEYMYWYRQDPGMGLRLIHYSVGEGTTAKGEVPDGYNVSRLKKQNFLLGLESAAPSQTSVYFCASRGYHRLNNEQFFGPGTRLTVL
binding result [1]: no recognition

Caspase 3/7 integrated intensity; TRAC only; 500 nM RMF; T2 [2]: 4950
Caspase 3/7 integrated intensity; TRAC/TRBC; 500 nM RMF; T2 [2]: 6800
Caspase 3/7 integrated intensity; TRAC only; 0 nM VLD; T2 [3]: 12200
Caspase 3/7 integrated intensity; TRAC only; 0.005 nM VLD; T2 [3]: 21000
Caspase 3/7 integrated intensity; TRAC only; 0.05 nM VLD; T2 [3]: 199000
Caspase 3/7 integrated intensity; TRAC only; 0.5 nM VLD; T2 [3]: 1.01e+06
Caspase 3/7 integrated intensity; TRAC only; 5 nM VLD; T2 [3]: 1.14e+06
Caspase 3/7 integrated intensity; TRAC only; 50 nM VLD; T2 [3]: 1.28e+06
Caspase 3/7 integrated intensity; TRAC only; 500 nM VLD; T2 [3]: 1.31e+06
Caspase 3/7 integrated intensity; TRAC/TRBC; 0 nM VLD; T2 [3]: 12400
Caspase 3/7 integrated intensity; TRAC/TRBC; 0.005 nM VLD; T2 [3]: 21000
Caspase 3/7 integrated intensity; TRAC/TRBC; 0.05 nM VLD; T2 [3]: 311000
Caspase 3/7 integrated intensity; TRAC/TRBC; 0.5 nM VLD; T2 [3]: 964000
Caspase 3/7 integrated intensity; TRAC/TRBC; 5 nM VLD; T2 [3]: 1.26e+06
Caspase 3/7 integrated intensity; TRAC/TRBC; 50 nM VLD; T2 [3]: 1.04e+06
Caspase 3/7 integrated intensity; TRAC/TRBC; 500 nM VLD; T2 [3]: 1.19e+06
% CD4+ TNFa+ IFNg+; TRAC/TRBC; 50 nM RMF; T2 [4]: 2.2%
% CD8+ TNFa+ IFNg+; TRAC/TRBC; 50 nM RMF; T2 [4]: 0.4%
% CD4+ TNFa+ IFNg+; TRAC/TRBC; 0 nM VLD; T2 [5]: 2.1%
% CD4+ TNFa+ IFNg+; TRAC/TRBC; 0.005 nM VLD; T2 [5]: 1.6%
% CD4+ TNFa+ IFNg+; TRAC/TRBC; 0.05 nM VLD; T2 [5]: 0.9%
% CD4+ TNFa+ IFNg+; TRAC/TRBC; 0.5 nM VLD; T2 [5]: 0.6%
% CD4+ TNFa+ IFNg+; TRAC/TRBC; 5 nM VLD; T2 [5]: 0.2%
% CD4+ TNFa+ IFNg+; TRAC/TRBC; 50 nM VLD; T2 [5]: 0.1%
% CD8+ TNFa+ IFNg+; TRAC/TRBC; 0 nM VLD; T2 [5]: 0.4%
% CD8+ TNFa+ IFNg+; TRAC/TRBC; 0.005 nM VLD; T2 [5]: 7.6%
% CD8+ TNFa+ IFNg+; TRAC/TRBC; 0.05 nM VLD; T2 [5]: 28.7%
% CD8+ TNFa+ IFNg+; TRAC/TRBC; 0.5 nM VLD; T2 [5]: 46.5%
% CD8+ TNFa+ IFNg+; TRAC/TRBC; 5 nM VLD; T2 [5]: 63.1%
% CD8+ TNFa+ IFNg+; TRAC/TRBC; 50 nM VLD; T2 [5]: 71.4%
IL2 release; TRAC only; 0 nM VLD; T2 [6]: 338 pg/mL
IL2 release; TRAC only; 0.005 nM VLD; T2 [6]: 326 pg/mL
IL2 release; TRAC only; 0.05 nM VLD; T2 [6]: 284 pg/mL
IL2 release; TRAC only; 0.5 nM VLD; T2 [6]: 305 pg/mL
IL2 release; TRAC only; 5 nM VLD; T2 [6]: 442 pg/mL
IL2 release; TRAC only; 50 nM VLD; T2 [6]: 1050 pg/mL
IL2 release; TRAC only; 500 nM VLD; T2 [6]: 1570 pg/mL
IL2 release; TRAC/TRBC; 0 nM VLD; T2 [6]: 306 pg/mL
IL2 release; TRAC/TRBC; 0.005 nM VLD; T2 [6]: 196 pg/mL
IL2 release; TRAC/TRBC; 0.05 nM VLD; T2 [6]: 198 pg/mL
IL2 release; TRAC/TRBC; 0.5 nM VLD; T2 [6]: 248 pg/mL
IL2 release; TRAC/TRBC; 5 nM VLD; T2 [6]: 351 pg/mL
IL2 release; TRAC/TRBC; 50 nM VLD; T2 [6]: 764 pg/mL
IL2 release; TRAC/TRBC; 500 nM VLD; T2 [6]: 1200 pg/mL
IFN-gamma release; TRAC/TRBC; 50 nM VLD; T2 [7]: 23600
IFN-gamma release; TRAC/TRBC; 500 nM VLD; T2 [7]: 31600
IFN-gamma release; only TRAC; 50 nM VLD; T2 [7]: 23700
IFN-gamma release; only TRAC; 500 nM VLD; T2 [7]: 27500
Mean % Tetramer+ (CD4+) [8]: 85.3%
Mean % Tetramer+ (CD8+) [8]: 81.9%
Mean Tetramer MFI (CD4+) [8]: 251000 MFI
Mean Tetramer MFI (CD8+) [8]: 190000 MFI
Mean % Tetramer+ (CD4+) [9]: 77.5%
Mean % Tetramer+ (CD8+) [9]: 73.6%
Mean Tetramer MFI (CD4+) [9]: 101000 MFI
Mean Tetramer MFI (CD8+) [9]: 102000 MFI
% CD4+ CD107a+; TRAC/TRBC; 50 nM RMF; T2 [10]: 4.67%
% CD8+ CD107a+; TRAC/TRBC; 50 nM RMF; T2 [10]: 2.82%
% CD4+ CD107a+; TRAC/TRBC; 0 nM VLD; T2 [11]: 4.62%
% CD4+ CD107a+; TRAC/TRBC; 0.005 nM VLD; T2 [11]: 5.06%
% CD4+ CD107a+; TRAC/TRBC; 0.05 nM VLD; T2 [11]: 4.23%
% CD4+ CD107a+; TRAC/TRBC; 0.5 nM VLD; T2 [11]: 4.74%
% CD4+ CD107a+; TRAC/TRBC; 5 nM VLD; T2 [11]: 4.44%
% CD4+ CD107a+; TRAC/TRBC; 50 nM VLD; T2 [11]: 4.52%
% CD8+ CD107a+; TRAC/TRBC; 0 nM VLD; T2 [11]: 3.15%
% CD8+ CD107a+; TRAC/TRBC; 0.005 nM VLD; T2 [11]: 12.2%
% CD8+ CD107a+; TRAC/TRBC; 0.05 nM VLD; T2 [11]: 34.2%
% CD8+ CD107a+; TRAC/TRBC; 0.5 nM VLD; T2 [11]: 53.3%
% CD8+ CD107a+; TRAC/TRBC; 5 nM VLD; T2 [11]: 65.8%
% CD8+ CD107a+; TRAC/TRBC; 50 nM VLD; T2 [11]: 73.2%
B2: TCR-G (WT1-specific T-cell receptor) (TCR, V domains shown)
V domain 1: DQQVKQNSPSLSVQEGRISILNCDYTNSMFDYFLWYKKYPAEGPTFLISISSIKDKNEDGRFTVFLNKSAKHLSLHIVPSQPGDSAVYFCAARGQGNLIFGKGTKLSVKP
V domain 2: EAGVAQSPRYKIIEKRQSVAFWCNPISGHATLYWYQQILGQGPKLLIQFQNNGVVDDSQLPKDRFSAERLKGVDSTLKIQPAKLEDSAVYLCASSLYRGEQYFGPGTRLTVTE
notes: also called AV15-TCR-G

B3: TCR-G (TCR, V domains shown)
Valpha: DQQVKQNSPSLSVQEGRISILNCDYTNSMFDYFLWYKKYPAEGPTFLISISSIKDKNEDGRFTVFLNKSAKHLSLHIVPSQPGDSAVYFCAARGQGNLIFGKGTKLSVKP
Vbeta: EAGVAQSPRYKIIEKRQSVAFWCNPISGHATLYWYQQILGQGPKLLIQFQNNGVVDDSQLPKDRFSAERLKGVDSTLKIQPAKLEDSAVYLCASSLYRGEQYFGPGTRLTVT
binding result [1]: no recognition
